Reference: patent US20220041658A1 (PROTAGONIST THERAPEUTICS, published 2022)
Starred links: 1 amine or outer side, 2 acyl side, 3 side chain; linkers in the order of their positions; H or OH if unused. Positions of bridges follow the written chain, without caps; N, C: chain ends. Non-standard residues stand in square brackets, D forms with d. Trp(7-Et) = 7-ethyl-tryptophan, CCc1cccc2c(C[C@H](N[*:1])C(=O)[*:2])c[nH]c12; Trp(7-Me) = Cc1cccc2c(C[C@H](N)C(=O)O)c[nH]c12; 2Nal = N[C@@H](Cc1ccc2ccccc2c1)C(=O)O; AEF = NCCOc1ccc(C[C@H](N)C(=O)O)cc1; Cit = NC(=O)NCCC[C@H](N)C(=O)O; Pen = CC(C)(S)[C@H](N)C(=O)O; αMeK = C[C@](N)(CCCCN)C(=O)O; Aib = CC(C)(N)C(=O)O

T1: interleukin-23 receptor (IL-23R) (human, UniProt Q5VWK5 24-629)
T1 sequence (looked up): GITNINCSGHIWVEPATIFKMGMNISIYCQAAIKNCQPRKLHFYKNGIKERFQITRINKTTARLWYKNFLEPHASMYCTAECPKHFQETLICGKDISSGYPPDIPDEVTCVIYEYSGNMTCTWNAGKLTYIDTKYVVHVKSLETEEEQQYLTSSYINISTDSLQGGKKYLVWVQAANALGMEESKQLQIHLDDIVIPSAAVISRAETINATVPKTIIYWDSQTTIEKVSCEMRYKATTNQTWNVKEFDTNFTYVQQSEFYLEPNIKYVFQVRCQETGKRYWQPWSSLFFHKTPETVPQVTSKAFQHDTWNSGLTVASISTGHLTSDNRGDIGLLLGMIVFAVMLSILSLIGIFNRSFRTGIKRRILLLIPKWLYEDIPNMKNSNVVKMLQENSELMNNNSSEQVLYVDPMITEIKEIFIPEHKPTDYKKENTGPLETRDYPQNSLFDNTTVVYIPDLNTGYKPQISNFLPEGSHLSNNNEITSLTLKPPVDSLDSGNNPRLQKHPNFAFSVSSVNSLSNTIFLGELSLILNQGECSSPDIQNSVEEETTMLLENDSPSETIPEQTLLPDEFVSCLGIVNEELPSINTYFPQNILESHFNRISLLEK

B1: Peptide of SEQ ID NO: 264 (peptide)
peptide: Ac-[Pen]NT[Trp(7-Me)][Cit][Pen][AEF][2Nal][αMeK]K(Ac)N[Aib]-NH2
modifications: disulfide 1-6
SMILES: CC(=O)NCCCC[C@H](NC(=O)[C@](C)(CCCCN)NC(=O)[C@H](Cc1ccc2ccccc2c1)NC(=O)[C@H](Cc1ccc(OCCN)cc1)NC(=O)[C@H]1NC(=O)[C@H](CCCNC(N)=O)NC(=O)[C@H](Cc2c[nH]c3c(C)cccc23)NC(=O)[C@H]([C@@H](C)O)NC(=O)[C@H](CC(N)=O)NC(=O)[C@@H](NC(C)=O)C(C)(C)SSC1(C)C)C(=O)N[C@@H](CC(N)=O)C(=O)NC(C)(C)C(N)=O
B2: Peptide of SEQ ID NO: 284 (peptide)
peptide: Ac-[Pen]NT[Trp(7-Et)]K(Ac)[Pen][AEF][2Nal][αMeK]K(Ac)N[dL]-NH2
modifications: disulfide 1-6
SMILES: CCc1cccc2c(C[C@@H]3NC(=O)[C@H]([C@@H](C)O)NC(=O)[C@H](CC(N)=O)NC(=O)[C@@H](NC(C)=O)C(C)(C)SSC(C)(C)[C@@H](C(=O)N[C@@H](Cc4ccc(OCCN)cc4)C(=O)N[C@@H](Cc4ccc5ccccc5c4)C(=O)N[C@@](C)(CCCCN)C(=O)N[C@@H](CCCCNC(C)=O)C(=O)N[C@@H](CC(N)=O)C(=O)N[C@H](CC(C)C)C(N)=O)NC(=O)[C@H](CCCCNC(C)=O)NC3=O)c[nH]c12

How the values were obtained:
[1] = biological target: T1, interleukin-23 receptor (IL-23R); assay: cell-based or functional assay
[2] = biological target: T1, interleukin-23 receptor (IL-23R); assay: cell-based or functional assay; remark: listed apart in the source

| Binder | pStat3 HTRF IC50 [1] [nM] | NK Cell Assay IC50 [2] [nM] |
| --- | --- | --- |
| Ac-[Pen]NT[Trp(7-Me)]K(Ac)[Pen]H[2Nal][αMeK]K(Ac)N[dL]-NH2 (disulfide 1-6 (inferred)) [Peptide of SEQ ID NO: 290] | 2.45 | 11 |
| B1 | 0.596 | 5.15 |
| Ac-[Pen]NT[Trp(7-Me)]K(Ac)[Pen][2Nal][2Nal][αMeK]K(Ac)N[dL]-NH2 (disulfide 1-6 (inferred)) [Peptide of SEQ ID NO: 289] | 1.91 | 5.12 |
| B2 | 0.34 | 3.16 |
